The target in the test is TNF-α (UniProt P01375). The experiment in a line: cell-based or functional assay.
Sequence of UniProt P01375 (P01375 77-233 limits assumed): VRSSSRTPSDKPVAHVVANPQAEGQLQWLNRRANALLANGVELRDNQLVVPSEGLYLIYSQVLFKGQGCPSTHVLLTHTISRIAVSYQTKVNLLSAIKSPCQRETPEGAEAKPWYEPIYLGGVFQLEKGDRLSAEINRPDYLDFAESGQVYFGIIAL

On to TNF-R2 scCLCH1-Fc (Fc fusion), for which the IC50 of inhibition of activation of the SEAP reporter gene in HEK-Blue TNF-α cells (235 pM TNF-α) came to 51 pM.

For the origin of these results see US20210177983A1.
